Measured values: US11214614B2, “LTBP complex-specific inhibitors of TGFβ and uses thereof” (Scholar Rock, Inc., priority 2019, dated 2022)
Numbering of substitutions follows the chain as printed.

B1: Ab2: TGFβ1 inhibitor test article of a four-week rat toxicology study; b152 gives same data for a context-independent TGFβ1 inhibitor antibody (antibody, V domains shown)
VH: QVQLVQSGAEVKKPGASVKVSCKASGYTFTSYGISWVRQAPGQGLEWMGWISAYNGNTNYAQKLQGRVTMTTDTSTSTAYMELRSLRSDDTAVYYCARAPLGNFDSWGQGTMVTVSS
VL: NFMLTQPHSVSESPGKTVTISCTRSSGSIASNYVQWYQQRPGSSPTTVIYEDNQRPSGVPDRFSGSIDSSSNSASLTISGLKTEDEADYYCQSYDSSNHPVVFGGGTKLTVL
B2: SR-AB43-HuFab: human Fab fragment of SR-AB43 used in SPR (antibody, V domains shown)
VH: QVQLVESGGGVVQPGRSLRLSCAASGFTFRSYVMHWVRQAPGKGLEWVAVISHEGSLKYYADSVKGRFTISRDNSKNTLYLQMNSLRAEDTAVYYCARPRIAARRGGFGYWGQGTLVTVSS
VL: B1 VL with S28N, A30D, S31Y, Q54V, S97D, H99Q, P100R
B3: SR-AB42-HuFab: human Fab fragment of SR-AB42 used in SPR (antibody, V domains shown)
VH: B2 VH
VL: B1 VL with S28N, A30D, S31N, S96Y, S97D, N98T, H99Q, P100G
B4: SR-AB43: cycle 3 light chain-optimized antibody, lineage SR-AB23; CDRs SEQ ID NO: 172-177 (antibody, V domains shown)
VH: B2 VH
VL: B1 VL with S28N, A30D, S31Y, Q54V, S97D, H99Q, P100R
B5: SR-AB63-HuFab: human Fab fragment of SR-AB63 used in SPR (antibody, V domains shown)
VH: QLQLQESGPGLVKPSETLSLTCTVSGGSIRSSSYYWGWIRQPPGKGLEWIGSISYSATTYYNPSLKSRVTISVDTSKNQFSLKLSSVTAADTAVYYCAGDPSYDSIAGMQVWGQGTTVTVSS
VL: DIQLTQSPSSLSASVGDRVTITCRASQSISSYLNWYQQKPGKAPKLLIYAASNLQSGVPSRFSGSGSGTDFTLTISSLQPEDFATYYCQQSFDWPLTFGGGTKVEIK

Legend:
[1] = literature reports (Frazier et al. 2007; Stauber et al. 2014, chronic ≥3 months); cited from earlier work
[2] = Four-week toxicology study in rats; type: in vivo, rat
Description: Maximally tolerated dose (MTD): The term MTD generally refers to, in the context of safety/toxicology considerations, the highest amount of a test article (such as a TGFβ1 inhibitor) evaluated with no observed adverse effect level (NOAEL).
Therapeutic window: The term “therapeutic window” refers to a range of doses/concentrations that produces therapeutic response without causing significant/observable/unacceptable adverse effect (e.g., within adverse effects that are acceptable or tolerable) in subjects. Therapeutic window may be calculated as a ratio between […].
Toxicity: As used herein, the term “toxicity” or “toxicities” refers to unwanted in vivo effects in patients associated with a therapy administered to the patients, such as undesirable side effects and adverse events. “Tolerability” refers to a level of toxicities associated with a therapy or therapeutic regimen, which can be reasonably tolerated by patients, without discontinuing the therapy due to the toxicities (i.e., acceptable level of toxicities). Typically, toxicity/toxicology studies are carried out in one or more preclinical models prior to clinical development to assess safety profiles of a drug candidate (e.g., monoclonal antibody therapy). […]

huLTBP1 proTGFβ1 [3] = biological target: T1, huLTBP1 proTGFβ1 (Homo sapiens, UniProt P01137+Q14766); experiment: SPR (Biacore 8K) monovalent binding kinetics of Fabs, biotinylated antigen captured; design: biotin (complex biotinylated); settings: for ka / kd: Fab, huLTBP1 proTGFβ1, SR-AB42-HuFab average of five, SR-AB63-HuFab average of four replicate experiments
T1 sequence (P01137 30-390): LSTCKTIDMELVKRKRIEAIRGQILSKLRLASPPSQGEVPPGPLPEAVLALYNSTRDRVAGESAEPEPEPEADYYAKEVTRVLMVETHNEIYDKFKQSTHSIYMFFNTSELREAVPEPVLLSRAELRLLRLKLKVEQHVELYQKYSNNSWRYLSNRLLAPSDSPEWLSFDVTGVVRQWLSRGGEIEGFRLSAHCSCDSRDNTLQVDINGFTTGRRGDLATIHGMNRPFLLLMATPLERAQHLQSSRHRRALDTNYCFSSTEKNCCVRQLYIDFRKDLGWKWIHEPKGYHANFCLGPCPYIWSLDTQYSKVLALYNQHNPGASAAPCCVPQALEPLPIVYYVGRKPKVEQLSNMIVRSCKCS
T1 sequence (Q14766 347-1721 limits assumed): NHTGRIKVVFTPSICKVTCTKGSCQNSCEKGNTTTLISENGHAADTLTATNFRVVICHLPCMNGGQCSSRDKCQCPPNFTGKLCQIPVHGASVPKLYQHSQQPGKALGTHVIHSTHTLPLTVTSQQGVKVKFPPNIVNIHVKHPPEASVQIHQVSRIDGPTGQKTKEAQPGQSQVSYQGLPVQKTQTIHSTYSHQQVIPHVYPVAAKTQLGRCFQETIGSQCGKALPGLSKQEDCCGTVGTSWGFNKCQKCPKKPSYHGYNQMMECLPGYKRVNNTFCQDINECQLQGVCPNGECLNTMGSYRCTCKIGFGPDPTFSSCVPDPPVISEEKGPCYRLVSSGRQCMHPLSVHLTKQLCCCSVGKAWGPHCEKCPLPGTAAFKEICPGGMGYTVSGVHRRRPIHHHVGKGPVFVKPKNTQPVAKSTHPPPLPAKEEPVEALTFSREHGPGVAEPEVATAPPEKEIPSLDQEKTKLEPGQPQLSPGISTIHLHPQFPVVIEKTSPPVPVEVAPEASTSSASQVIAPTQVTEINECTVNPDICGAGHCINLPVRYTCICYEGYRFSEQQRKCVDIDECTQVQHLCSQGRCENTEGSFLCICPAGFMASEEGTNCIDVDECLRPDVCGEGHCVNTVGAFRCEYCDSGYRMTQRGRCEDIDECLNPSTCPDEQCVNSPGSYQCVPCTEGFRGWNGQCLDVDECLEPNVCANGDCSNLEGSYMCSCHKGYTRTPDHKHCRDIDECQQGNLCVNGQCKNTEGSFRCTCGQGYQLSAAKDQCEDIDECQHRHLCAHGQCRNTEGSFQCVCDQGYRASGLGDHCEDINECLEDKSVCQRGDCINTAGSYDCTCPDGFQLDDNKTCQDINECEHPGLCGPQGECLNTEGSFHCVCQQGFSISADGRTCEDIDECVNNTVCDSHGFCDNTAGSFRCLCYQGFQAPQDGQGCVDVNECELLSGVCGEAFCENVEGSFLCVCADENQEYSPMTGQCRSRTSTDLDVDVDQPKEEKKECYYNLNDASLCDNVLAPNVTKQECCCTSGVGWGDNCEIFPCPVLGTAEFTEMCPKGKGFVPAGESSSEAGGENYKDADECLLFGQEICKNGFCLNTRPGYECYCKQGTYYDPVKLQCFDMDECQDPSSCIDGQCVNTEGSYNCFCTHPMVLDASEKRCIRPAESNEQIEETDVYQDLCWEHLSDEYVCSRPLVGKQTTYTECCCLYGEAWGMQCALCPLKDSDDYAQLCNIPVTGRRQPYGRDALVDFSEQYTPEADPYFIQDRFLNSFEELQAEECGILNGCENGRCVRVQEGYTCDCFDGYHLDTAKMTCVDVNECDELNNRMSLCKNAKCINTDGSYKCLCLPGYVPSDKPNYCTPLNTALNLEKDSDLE
Description: (§1) A Biacore 8K system was employed to determine the monovalent binding affinity and the kinetic parameters for antigen binding of test antibodies. Association and dissociation kinetics of Fab fragments SR-AB42-HuFab, SR-AB63-HuFab and SR-AB43-HuFab to antigen complexes were measured, and resulting ka, kd and KD are provided below. Briefly, the binding kinetics were evaluated by surface plasmon resonance using Biacore 8K (GE Healthcare). Biotinylated capture antigens were immobilized to the chip (10 nM, ˜200 RU loading). A Biotin CAPture sensor chip was used to capture the biotinylated antigens. Fabs at 10, 5, 2.5, 1.25, and 0.6 nM concentrations were injected over the captured antigens. 0 nM was used as a reference. Affinities of LTBP antibodies to GARP and LRRC33 were confirmed using higher concentration of Fabs (100, 50, 25, 12.5, 6.25 nM). 0 nM was used as a reference. Multi-cycle kinetics was employed where each analyte concentration was injected in a separate cycle and the sensor chip surface was regenerated after each cycle. All the assays were carried out in freshly prepared 1×HBS-EP+buffer (10 mM HEPES, 150 mM NaCl, 3 mM EDTA, 0.05% Tween20, pH 7.4). Data were fit globally to a 1:1 binding model to obtain the kinetic parameters. The sensorgram for 0 nM analyte concentration was used as reference.
(§2) • 96 well plates—Greinerbio-one REF 650101 • Microplate Foils—GE Healthcare—CAT #28-9758-16 • Biotin CAPture Kit GE Healthcare product number 28920233 • Biacore running buffer—supplied as a 20× solution, diluted in Milli-Q water, TEKnova CAT #H8022 Method:
(§3) These experiments were performed using the Biacore 8K using the method “multi-cycle kinetics/affinity using Biotin CAPture kit.”
(§4) Data collection rate was set to 10 Hz and the Biotin CAPture step was performed for 300 seconds with a flow rate of 2 μL/minute. The Biotin CAPture reagent was used after a 1:5 dilution in 1× Biacore running buffer. Biotinylated ligands (the various complexes of TGFβ1) were utilized at a concentration of 10 nM and were immobilized to the sensor chip for 180 seconds with a flow rate of 10 μL/minute. The analytes, which are each of the Fabs, were tested at 10, 5, 2.5, 1.25, and 0.625 nM with a 0 nM control included. Analyte contact time was 120 seconds and the dissociation time was 900 seconds. The regeneration cycle utilized was 120 seconds with a flow rate of 10 μL/minute.
(§5) The evaluation method used was “multi-cycle affinity using capture” and a 1:1 binding model was used. […] Global fits were utilized for every KD determination.

Murine LTBP3 proTGFβ1 = biological target: T2, Murine LTBP3 proTGFβ1 (Mus musculus, UniProt P04202+Q61810); experiment: as above; settings: Fab, Murine LTBP3 proTGFb1; average of two replicate experiments
T2 construct: biotin (complex biotinylated)
Description: as §1, §2, §3, §4, §5

huLRRC33 proTGFβ1 = huLRRC33 proTGFβ1 (Homo sapiens, UniProt P01137); experiment: as above; design: biotin (complex biotinylated); modified human kappa light chain signal peptide (N); Histidine tag (C); settings: Fab, huLRRC33 proTGFb1
Chain of huLRRC33 proTGFβ1 (P01137 30-390): as the sequence (P01137 30-390) above
Chain of huLRRC33 proTGFβ1 (Q86YC3 with tags, fused parts or gaps partner limits assumed): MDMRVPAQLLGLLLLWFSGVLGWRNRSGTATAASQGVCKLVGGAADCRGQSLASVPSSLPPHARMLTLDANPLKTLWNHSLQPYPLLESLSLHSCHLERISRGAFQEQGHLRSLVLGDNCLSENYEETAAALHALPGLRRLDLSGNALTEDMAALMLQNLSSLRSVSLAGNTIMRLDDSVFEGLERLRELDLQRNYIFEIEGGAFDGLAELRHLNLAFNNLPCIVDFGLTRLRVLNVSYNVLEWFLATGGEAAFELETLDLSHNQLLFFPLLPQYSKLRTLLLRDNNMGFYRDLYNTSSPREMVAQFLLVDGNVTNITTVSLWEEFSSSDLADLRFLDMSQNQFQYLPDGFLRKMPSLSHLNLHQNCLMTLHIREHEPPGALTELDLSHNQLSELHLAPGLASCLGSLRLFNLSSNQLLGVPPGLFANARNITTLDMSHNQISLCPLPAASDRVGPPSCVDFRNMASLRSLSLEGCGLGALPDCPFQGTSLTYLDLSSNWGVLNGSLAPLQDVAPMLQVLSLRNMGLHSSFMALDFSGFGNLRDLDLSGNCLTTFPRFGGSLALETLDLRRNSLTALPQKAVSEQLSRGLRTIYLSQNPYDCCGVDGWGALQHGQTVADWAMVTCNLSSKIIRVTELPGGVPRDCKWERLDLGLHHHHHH
Description: as §1, §2, §3, §4, §5

huGARP proTGFβ1 [4] = biological target: T3, huGARP proTGFβ1 (Homo sapiens, UniProt P01137); experiment: as above; design: biotin (complex biotinylated); settings: Fab, huGARP proTGFb1
T3 sequence (P01137 30-390): as the sequence (P01137 30-390) above
T3 sequence (Q14392 18-627 partner limits assumed): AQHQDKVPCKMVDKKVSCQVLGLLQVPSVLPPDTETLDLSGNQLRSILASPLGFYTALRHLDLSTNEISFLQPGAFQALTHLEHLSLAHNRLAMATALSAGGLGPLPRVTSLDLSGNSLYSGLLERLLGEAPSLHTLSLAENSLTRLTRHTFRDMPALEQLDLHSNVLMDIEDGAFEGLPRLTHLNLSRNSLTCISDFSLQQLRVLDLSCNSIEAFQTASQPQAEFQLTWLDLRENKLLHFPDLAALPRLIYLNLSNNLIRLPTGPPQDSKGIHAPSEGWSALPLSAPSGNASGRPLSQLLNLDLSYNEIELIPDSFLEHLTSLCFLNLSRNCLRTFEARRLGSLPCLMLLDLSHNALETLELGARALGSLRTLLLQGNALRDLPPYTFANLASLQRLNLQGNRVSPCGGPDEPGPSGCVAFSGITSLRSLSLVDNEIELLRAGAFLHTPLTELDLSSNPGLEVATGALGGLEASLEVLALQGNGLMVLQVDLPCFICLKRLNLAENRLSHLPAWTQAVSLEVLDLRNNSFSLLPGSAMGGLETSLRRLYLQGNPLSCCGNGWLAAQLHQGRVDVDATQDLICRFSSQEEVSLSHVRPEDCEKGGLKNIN
Description: as §1, §2, §3, §4, §5

huLTBP3 proTGFβ1 [5] = biological target: T4, huLTBP3 proTGFβ1 (Homo sapiens, UniProt P01137+Q9NS15); experiment: as above; design: biotin (complex biotinylated); settings: Fab, huLTBP3 proTGFb1
T4 sequence (P01137 30-390): as the sequence (P01137 30-390) above
T4 sequence (Q9NS15 44-1303): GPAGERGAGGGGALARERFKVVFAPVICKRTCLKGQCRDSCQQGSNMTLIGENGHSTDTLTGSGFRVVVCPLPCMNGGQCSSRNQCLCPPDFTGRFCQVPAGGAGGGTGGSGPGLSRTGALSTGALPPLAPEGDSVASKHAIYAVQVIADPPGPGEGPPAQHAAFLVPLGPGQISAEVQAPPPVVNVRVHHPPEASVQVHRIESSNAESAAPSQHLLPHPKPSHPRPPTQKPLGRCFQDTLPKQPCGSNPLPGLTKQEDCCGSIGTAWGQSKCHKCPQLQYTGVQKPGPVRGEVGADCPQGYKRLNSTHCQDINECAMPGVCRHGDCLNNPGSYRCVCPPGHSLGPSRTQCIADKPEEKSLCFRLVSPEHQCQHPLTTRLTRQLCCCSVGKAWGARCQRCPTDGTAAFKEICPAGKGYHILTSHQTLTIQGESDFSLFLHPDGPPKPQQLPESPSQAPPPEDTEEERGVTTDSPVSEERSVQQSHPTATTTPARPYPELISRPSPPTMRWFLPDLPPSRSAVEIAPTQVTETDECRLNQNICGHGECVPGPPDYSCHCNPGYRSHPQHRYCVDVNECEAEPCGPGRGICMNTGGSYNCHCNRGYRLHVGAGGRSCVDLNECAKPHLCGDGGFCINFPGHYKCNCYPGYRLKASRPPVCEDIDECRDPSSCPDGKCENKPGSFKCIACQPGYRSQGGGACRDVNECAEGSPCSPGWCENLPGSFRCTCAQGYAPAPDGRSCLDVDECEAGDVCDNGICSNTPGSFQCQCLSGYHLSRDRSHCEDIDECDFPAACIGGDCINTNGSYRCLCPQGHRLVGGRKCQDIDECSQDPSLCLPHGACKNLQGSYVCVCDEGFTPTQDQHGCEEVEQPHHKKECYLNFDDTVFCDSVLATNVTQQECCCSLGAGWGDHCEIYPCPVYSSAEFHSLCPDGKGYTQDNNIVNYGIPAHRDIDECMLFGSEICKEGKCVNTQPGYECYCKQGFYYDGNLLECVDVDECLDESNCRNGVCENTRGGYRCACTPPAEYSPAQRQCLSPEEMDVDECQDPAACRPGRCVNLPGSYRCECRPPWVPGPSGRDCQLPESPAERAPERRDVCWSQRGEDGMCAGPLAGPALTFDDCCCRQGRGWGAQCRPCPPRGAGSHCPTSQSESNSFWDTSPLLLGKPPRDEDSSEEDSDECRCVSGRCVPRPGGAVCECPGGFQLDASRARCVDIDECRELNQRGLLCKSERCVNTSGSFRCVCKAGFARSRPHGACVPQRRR
Description: as §1, §2, §3, §4, §5

huLTBP3 proTGFβ1 [6] = biological target: T4, huLTBP3 proTGFβ1; experiment: Octet (BLI) binding, IgG captured on AHC tips, antigen at 100 nM; settings: Table 9, cycle 3, IgG1-agly
Summary of the method: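 Antibodies loaded at 1 μg/mL onto anti-human Fc sensors were exposed to each TGFβ1 complex at 100 nM in kinetics buffer. Association ran 3 min; dissociation was 3 min in one protocol and 5 min in another. KD came from a 1:1 fitting model.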

huLTBP1 proTGFβ1 [7] = biological target: T1, huLTBP1 proTGFβ1; experiment: as above; settings: Table 9, cycle 3, IgG1-agly
Summary of the method: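 Antibodies were captured on anti-human Fc biosensors at 1 μg/mL (~7 nM), to a maximum response of 1 nm. Antigen complex was run at a single 100 nM in 1× kinetics buffer, shaking at 1000 rpm. Association was 3 min and dissociation 3 min (5 min in later rounds), with KD from a local, full 1:1 fit.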

huGARP proTGFβ1 [8] = biological target: T3, huGARP proTGFβ1; experiment: as above; settings: N.B. = non-binder under conditions of this assay
Summary of the method: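 Antibody loaded at 1 μg/mL onto anti-human Fc capture biosensors, then exposed to human GARP-proTGFβ1 at 100 nM in 1× kinetics buffer with 1000 rpm shaking. Association 3 min, dissociation 3 or 5 min; KD from 1:1 local full fit.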

Molecule	ka (huLTBP1 proTGFβ1 [3])	kd (huLTBP1 proTGFβ1 [3])	ka (Murine LTBP3 proTGFβ1)	kd (Murine LTBP3 proTGFβ1)	ka (huLRRC33 proTGFβ1)	kd (huLRRC33 proTGFβ1)	ka (huGARP proTGFβ1 [4])	kd (huGARP proTGFβ1 [4])	ka (huLTBP3 proTGFβ1 [5])	kd (huLTBP3 proTGFβ1 [5])	also measured
O=C(NC1CCOCC1)c1ccc(-c2cc(-c3c[nH]nc3-c3ccccn3)ccn2)cc1 [GW788388]	–	–	–	–	–	–	–	–	–	–	Toxicity in rats [1]: induced physeal dysplasia in rats
B1	–	–	–	–	–	–	–	–	–	–	MTD [2]: > 100 mg/kg; NOAEL ([2]; highest dose evaluated): 100 mg/kg
B2	1.03e+06 M⁻¹ s⁻¹	0.000284 s⁻¹	1.82e+09 M⁻¹ s⁻¹	6.37 s⁻¹	–	–	–	–	–	–	–
B3	543000 M⁻¹ s⁻¹	0.000105 s⁻¹	1.23e+08 M⁻¹ s⁻¹	0.397 s⁻¹	80900 M⁻¹ s⁻¹	0.00353 s⁻¹	155000 M⁻¹ s⁻¹	0.00604 s⁻¹	405000 M⁻¹ s⁻¹	0.000142 s⁻¹	–
B4	–	–	–	–	–	–	–	–	–	–	Hu LTBP3-proTGFβ1 Kon (huLTBP3 proTGFβ1 [6]; 1:1 fit): 337000 M⁻¹ s⁻¹; Hu LTBP3-proTGFβ1 Koff (huLTBP3 proTGFβ1 [6]; 5-minute dissociation): 6e-05 s⁻¹; Hu LTBP1-proTGFβ1 Kon (huLTBP1 proTGFβ1 [7]; 1:1 fit): 244000 M⁻¹ s⁻¹; Hu LTBP1-proTGFβ1 Koff (huLTBP1 proTGFβ1 [7]; 5-minute dissociation): 0.000159 s⁻¹; ForteBio IgG KD Hu GARP-proTGFβ1 (M) Avid (huGARP proTGFβ1 [8]; Table 9, cycle 3, IgG1-agly, 1:1 fit): N.B.; ForteBio IgG KD Hu GARP-proTGFβ1 in solution (M) Avid (huGARP proTGFβ1 [8]; Table 10, same assay conditions as Table 9): N.B.; KD of Fab fragments (huLTBP1 proTGFβ1 [3]; SPR, Fab fragments, antigen not given): sub-nanomolar
B5	371000 M⁻¹ s⁻¹	3.82e-08 s⁻¹	–	–	5000 M⁻¹ s⁻¹	0.00108 s⁻¹	2660 M⁻¹ s⁻¹	0.00093 s⁻¹	394000 M⁻¹ s⁻¹	4.99e-05 s⁻¹	–
